Results: patent US20060234285A1 (Human Genome Sciences, published 2006)

Columns and labels:
[1] = target: T1, Soluble human FLAG-FasL (synthesized at HGS) (human, UniProt P48023 130-281, limits assumed); assay: cell-based or functional assay
T1 sequence (looked up): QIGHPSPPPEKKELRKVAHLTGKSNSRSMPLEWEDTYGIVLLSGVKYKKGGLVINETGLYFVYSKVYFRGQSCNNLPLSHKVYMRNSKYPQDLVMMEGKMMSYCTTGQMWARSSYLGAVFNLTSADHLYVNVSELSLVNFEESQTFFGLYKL

[2] = target: T2, Murine FasL on transfected murine L929 cells (murine, UniProt P41047 1-279); assay: cell-based or functional assay
T2 sequence (looked up): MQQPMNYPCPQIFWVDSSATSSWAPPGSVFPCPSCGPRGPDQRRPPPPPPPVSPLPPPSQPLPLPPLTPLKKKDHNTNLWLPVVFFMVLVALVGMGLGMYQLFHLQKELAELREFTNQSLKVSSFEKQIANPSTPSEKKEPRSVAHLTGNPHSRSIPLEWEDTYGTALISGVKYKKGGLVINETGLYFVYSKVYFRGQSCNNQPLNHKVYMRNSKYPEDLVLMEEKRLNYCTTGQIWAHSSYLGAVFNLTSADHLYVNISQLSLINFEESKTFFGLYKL

[3] = target: T1, Soluble human FLAG-FasL (synthesized at …); assay: BIAcore, trimerized FLAG-FasL soluble
[4] = target: T3, Human LIGHT, full length, on cells (stably transfected 293F cells; endogenous on activated human T cells) (human, UniProt O43557 1-240); assay: flow cytometry on 293 cells overexpressing LIGHT
T3 construct: whole, on cells; also called LIGHT-transfectants; cell membrane LIGHT
Procedure: This was tested on 293 cells overexpressing LIGHT according to flow cytometry.

[5] = target: T4, TNF-gamma-beta, full length, on transfected cells (human, UniProt O95150 1-251); assay: flow cytometry on HEK293F cells expressing full length TNF-gamma-beta
T4 construct: whole, on cells; also called TL1β
T4 sequence (looked up): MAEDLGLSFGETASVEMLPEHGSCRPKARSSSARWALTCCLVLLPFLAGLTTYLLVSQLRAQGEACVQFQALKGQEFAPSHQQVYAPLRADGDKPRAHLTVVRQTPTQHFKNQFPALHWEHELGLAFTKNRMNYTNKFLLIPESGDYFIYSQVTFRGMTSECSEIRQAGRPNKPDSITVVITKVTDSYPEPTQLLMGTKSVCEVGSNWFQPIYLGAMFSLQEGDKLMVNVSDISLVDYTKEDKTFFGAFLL
Procedure: One million cells, in 0.1 ml of FACS buffer (PBS, 0.1% BSA, 0.1% NaN₃), were incubated with 0.1-1 microgram of protein or antibody at RT for 15 min. The cells were washed with 3 ml of FACS buffer, reacted with biotinylated primary antibody, and stained with PE-conjugated secondary antibody at RT for 15 min. Cells were then washed again, resuspended in 0.5 microgram/ml of propidium iodide, and live cells were gated and analyzed on a FACScan using the CellQuest software (BD Biosciences).

[6] = target: T5, FLAG-tagged soluble form of TNF-gamma-beta (aa 72-251) (human, UniProt O95150 72-251); assay: coimmunoprecipitation with protein A-Sepharose, anti-Flag western blot
T5 construct: also called FLAG-TL1β; FLAG-TNF-gamma-beta
T5 sequence (looked up): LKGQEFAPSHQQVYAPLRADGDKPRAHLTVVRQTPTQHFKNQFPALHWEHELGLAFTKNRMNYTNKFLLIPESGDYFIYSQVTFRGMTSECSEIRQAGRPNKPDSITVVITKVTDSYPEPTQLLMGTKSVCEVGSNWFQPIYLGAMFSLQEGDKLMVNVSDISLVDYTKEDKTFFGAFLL
From the text: The beads were then precipitated and washed extensively with PBST buffer (PBS, 0.5% Triton X-100) before boiled in SDS-sample buffer. Proteins were resolved on 4-20% Tris-Glycine gels (NOVEX), transferred to nitrocellulose membranes, and blotted with anti-Flag M2 monoclonal antibody (1 microgram/ml, Sigma) and horseradish peroxidase (HRP)-conjugated goat anti-mouse IgG antibody (0.5 microgram/ml).

T3 sequence (O43557 whole entry): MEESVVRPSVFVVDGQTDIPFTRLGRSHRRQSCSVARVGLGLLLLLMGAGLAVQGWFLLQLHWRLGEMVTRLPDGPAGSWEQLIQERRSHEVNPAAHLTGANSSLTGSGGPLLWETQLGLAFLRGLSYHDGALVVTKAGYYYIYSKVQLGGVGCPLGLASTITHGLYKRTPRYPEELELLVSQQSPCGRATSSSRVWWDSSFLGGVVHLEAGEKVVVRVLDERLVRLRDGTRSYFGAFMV

B1: Human Fas(M1-G169)-Fc fusion protein (Fc fusion, UniProt P25445 26-169, looked up, not shown: a dimerising Fc or GST)
chain: QVTDINSKGLELRKTVTTVETQNLEGLHHDGQFCHKPCPPGERKARDCTVNGDEPDCVPCQEGKEYTDKAHFSSKCRRCRLCDEGHGLEVEINCTRTQNTKCRCKPNFFCNSTVCEHCDPCTKCEHGIIKECTLTSNTKCKEEG
notes: range 1-169; From CHO cells; a disulfide-linked dimer; also called Fas-Fc; FasFc
cross-linked FLAG-FasL mediated HT-29 cell death; shift of the cytotoxicity curve [1]: ~10 fold | IC50 of inhibition of killing of A20 target cells by murine FasL-transfected L929 cells [2]: ~0.1 mg/L | Kd [3]: 7.4 nM | binding result [4]: no binding | binding result [5]: no binding | binding result [6]: no binding
